Values quoted from earlier work, collected in paper PMC6295471.

What was measured:
Sap30 SID (Mus musculus) = Sap30 SID (Mus musculus) (UniProt O88574)
Mxd1 5-24 (Homo sapiens) = Mxd1 5-24 (Homo sapiens) (UniProt Q05195)
Mxd1 5-20 (Homo sapiens) = Mxd1 5-20 (Homo sapiens) (UniProt Q05195)

Chain of UniProt Q05195 (Q05195 5-24): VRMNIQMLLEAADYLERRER
Chain of UniProt O88574 (O88574 130-220): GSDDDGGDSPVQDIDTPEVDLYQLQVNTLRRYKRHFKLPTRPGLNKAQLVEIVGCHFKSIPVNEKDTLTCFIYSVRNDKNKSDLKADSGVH

Kd (Sap30 SID (Mus musculus)) [nM] | Kd (Mxd1 5-24 (Homo sapiens)) [nM] | Kd (Mxd1 5-20 (Homo sapiens)) [nM] | Substance
10 | – | – | Sin3 PAH3 (from UniProt Q60520)
– | 400 | 1400 | Sin3 PAH2 (from UniProt Q62141)
